Experimental data: paper doi:10.64898/2025.12.03.692196
One block for each substance: values may come before it.

Experiments:
[1] = target: YRDC_(ΔL222), GAMOS-associated variant of the ΔN43 construct (human); assay: native gel or EMSA
[2] = target: YRDC_(ΔL222), GAMOS-associated variant of the ΔN43 construct (human); assay: mass photometry
[3] = target: human YRDC lacking the N-terminal 43 residues (ΔN43 construct) (human); assay: native gel or EMSA
[4] = target: human YRDC lacking the N-terminal 43 residues (ΔN43 construct) (human); assay: native MS
[5] = target: human YRDC lacking the N-terminal 43 residues (ΔN43 construct) (human); assay: mass photometry
[6] = target: YRDC_(A41V), GAMOS-associated variant of the ΔN43 construct (human); assay: native gel or EMSA
[7] = target: YRDC_(A41V), GAMOS-associated variant of the ΔN43 construct (human); assay: mass photometry
[8] = target: YRDC_(I178T), GAMOS-associated variant of the ΔN43 construct (human); assay: mass photometry

stoichiometry N [1]: 2 | tetramer fraction [2]: 27% | trimer fraction [2]: 44%
Substance: YRDC_(ΔL222), GAMOS-associated variant of the ΔN43 construct (enzyme)

stoichiometry N [3]: 2 | stoichiometry N [4]: 2 | stoichiometry N [5]: 2
Substance: human YRDC lacking the N-terminal 43 residues (ΔN43 construct) (enzyme)

stoichiometry N [6]: 2 | tetramer fraction [7]: 24% | trimer fraction [7]: 28%
Substance: YRDC_(A41V), GAMOS-associated variant of the ΔN43 construct (enzyme)

dimer fraction [8]: 19%
Substance: YRDC_(I178T), GAMOS-associated variant of the ΔN43 construct (enzyme)
